Assay results as given in US20250376696A1.

Target: SIRPα of non-obese diabetic (NOD) mice (mouse (NOD strain)) (UniProt O89094)
Experiment: cell-based or functional assay

Sequence of UniProt O89094 (O89094 168-257): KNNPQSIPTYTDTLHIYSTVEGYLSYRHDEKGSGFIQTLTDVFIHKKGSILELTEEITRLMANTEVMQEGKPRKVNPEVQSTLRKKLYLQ

human CD47 on lentiviral vector (LV) particles (from UniProt Q08722 19-323) (receptor)
LV copies in plasmacytoid dendritic cells (pDC), NOD versus C57BL/6 mice: > 10 fold
LV copies per cell (vector copy number, VCN) in sorted hepatocytes, NOD versus C57BL/6 mice: 4 fold
VCN in liver macrophages, NOD versus C57BL/6 mice: 30 fold
VCN in spleen, NOD versus C57BL/6 mice: 5 fold
